# In patent US20070036793A1, “Methods for use of an lkb1/strad7mo25 complex” (priority 2003, published 2007):
# Experiments:
# [1] = target: T1, GST-LKB1-STRADα-MO25α complex (Mus musculus, UniProt Q9WTK7); assay: LKB1 kinase assay with AMPK T-loop peptide substrate (Example 3); format: biochemical; settings: peptide 10-2000 μM, 0.1 mM ATP, 30 min at 30° C.
# T1 construct: Constructs expressing the full length wild type and kinase dead mouse LKB1 have been described previously; made in house; host or cells: HEK-293 / HEK-293T cells, co-transfected
# T1 sequence (Q9WTK7 1-433 limits assumed): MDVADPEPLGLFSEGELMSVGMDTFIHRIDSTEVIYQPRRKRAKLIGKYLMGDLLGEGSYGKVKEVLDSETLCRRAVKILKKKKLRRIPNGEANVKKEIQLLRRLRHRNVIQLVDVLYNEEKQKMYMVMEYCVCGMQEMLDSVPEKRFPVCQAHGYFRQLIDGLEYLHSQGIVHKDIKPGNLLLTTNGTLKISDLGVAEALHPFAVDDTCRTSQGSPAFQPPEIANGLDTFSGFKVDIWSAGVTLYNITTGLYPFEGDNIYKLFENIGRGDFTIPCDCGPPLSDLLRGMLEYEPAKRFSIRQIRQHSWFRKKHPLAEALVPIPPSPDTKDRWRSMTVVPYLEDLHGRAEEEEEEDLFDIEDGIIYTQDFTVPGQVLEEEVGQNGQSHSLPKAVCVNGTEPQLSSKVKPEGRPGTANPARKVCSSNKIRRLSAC
# T1 sequence (Q7RTN6 1-431 partner): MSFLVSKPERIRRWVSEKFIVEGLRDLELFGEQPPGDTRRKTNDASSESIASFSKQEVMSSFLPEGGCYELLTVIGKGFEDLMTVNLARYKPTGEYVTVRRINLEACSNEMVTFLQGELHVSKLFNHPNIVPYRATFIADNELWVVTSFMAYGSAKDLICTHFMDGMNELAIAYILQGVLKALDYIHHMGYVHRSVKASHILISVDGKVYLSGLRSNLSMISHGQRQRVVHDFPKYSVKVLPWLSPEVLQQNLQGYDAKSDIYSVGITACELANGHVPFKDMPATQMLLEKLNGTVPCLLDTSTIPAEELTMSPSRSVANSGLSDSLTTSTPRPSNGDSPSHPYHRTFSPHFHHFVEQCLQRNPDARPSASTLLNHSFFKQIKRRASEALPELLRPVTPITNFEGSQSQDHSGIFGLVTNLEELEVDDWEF
# T1 sequence (Q9Y376 1-341 partner): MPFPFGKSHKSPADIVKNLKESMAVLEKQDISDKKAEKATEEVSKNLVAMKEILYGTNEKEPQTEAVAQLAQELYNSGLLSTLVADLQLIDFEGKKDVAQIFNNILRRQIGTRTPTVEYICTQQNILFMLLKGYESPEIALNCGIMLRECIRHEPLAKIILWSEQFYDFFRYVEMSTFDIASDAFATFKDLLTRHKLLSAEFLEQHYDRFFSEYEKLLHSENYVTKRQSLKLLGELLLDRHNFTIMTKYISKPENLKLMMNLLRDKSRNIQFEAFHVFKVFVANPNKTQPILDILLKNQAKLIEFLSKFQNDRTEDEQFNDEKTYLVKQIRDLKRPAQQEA
# Procedure: FIG. 20: Km and Vmax for a peptide substrate (termed AMPKtide). Assay conditions are described in Example 3.
# An assay may be performed as follows. Other assays using such a substrate peptide may be used, for example in a high throughput format. The standard assay (50 μl) contained: 0.3 μg of purified GST-LKB1-STRADα-MO25α complex, 50 mM Tris/HCl pH 7.5, 0.1 mM EGTA, 0.1% (by vol) 2-mercaptoethanol, 10 mM magnesium acetate, 0.1 mM [γ^32P]ATP (˜200 cpm/pmol) and T-loop peptide ([…], 10-2000 μM). The assays were carried out for 30 min at 30° C., then terminated by pipetting the reaction mixture onto a 1 cm square of p81 paper, which was washed with 6 changes of 250 ml of 50 mM phosphoric acid (2 min each wash), the paper washed once in 200 ml of acetone and dried. Radioactivity bound to the p81 paper was quantitated by Cherenkov counting. 1 unit of activity is the amount of enzyme that catalyses the phosphorylation of 1 nmol of peptide per minute.
# [2] = target: T2, AMPK (Homo sapiens, UniProt Q13131); assay: Activation and Thr-172 phosphorylation of endogenous AMPK in HeLa cells with or without stably expressed LKB1; format: cell-based; settings: earlier unpublished results
# T2 construct: Endogenous AMPK was immunoprecipitated from the cell extracts and assayed; endogenous in cells; host or cells: HeLa cells (control, or stably expressing wild type or kinase-dead LKB1)
# T2 sequence (Q13131 whole entry): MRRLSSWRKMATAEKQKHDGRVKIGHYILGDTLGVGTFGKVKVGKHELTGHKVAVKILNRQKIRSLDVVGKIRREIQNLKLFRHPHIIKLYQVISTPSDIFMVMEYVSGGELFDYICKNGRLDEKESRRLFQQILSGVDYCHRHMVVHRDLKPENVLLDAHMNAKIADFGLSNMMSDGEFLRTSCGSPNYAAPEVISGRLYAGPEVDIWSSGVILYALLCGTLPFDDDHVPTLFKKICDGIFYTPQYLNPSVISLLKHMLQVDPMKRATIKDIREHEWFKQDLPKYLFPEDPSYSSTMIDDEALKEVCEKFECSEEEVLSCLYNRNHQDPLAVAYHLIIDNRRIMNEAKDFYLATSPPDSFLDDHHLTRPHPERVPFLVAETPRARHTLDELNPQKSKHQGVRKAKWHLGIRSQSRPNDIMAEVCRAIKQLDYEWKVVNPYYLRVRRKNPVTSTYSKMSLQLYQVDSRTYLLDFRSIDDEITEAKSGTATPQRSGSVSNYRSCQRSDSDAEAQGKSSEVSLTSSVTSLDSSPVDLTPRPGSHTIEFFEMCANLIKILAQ
# T2 sequence (Q9Y478 2-270 partner limits assumed): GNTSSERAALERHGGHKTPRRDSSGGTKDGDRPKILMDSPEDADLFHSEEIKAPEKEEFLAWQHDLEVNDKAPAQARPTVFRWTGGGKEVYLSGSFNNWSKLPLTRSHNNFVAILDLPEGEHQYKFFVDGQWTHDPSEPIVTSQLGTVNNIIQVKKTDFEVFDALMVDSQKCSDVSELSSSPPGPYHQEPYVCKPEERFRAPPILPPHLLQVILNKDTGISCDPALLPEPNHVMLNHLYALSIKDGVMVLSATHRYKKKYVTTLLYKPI
# T2 sequence (P54619 whole entry partner): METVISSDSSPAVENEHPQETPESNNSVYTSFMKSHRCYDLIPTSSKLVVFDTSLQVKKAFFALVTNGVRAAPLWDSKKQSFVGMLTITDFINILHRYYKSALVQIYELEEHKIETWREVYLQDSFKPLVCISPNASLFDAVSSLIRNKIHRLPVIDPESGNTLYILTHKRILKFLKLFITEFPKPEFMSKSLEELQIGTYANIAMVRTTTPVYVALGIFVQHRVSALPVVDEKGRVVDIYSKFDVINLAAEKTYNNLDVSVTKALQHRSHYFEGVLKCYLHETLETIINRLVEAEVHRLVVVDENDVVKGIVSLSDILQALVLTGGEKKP
Km [1],Vmax [1],activation of AMPK [2],Molecule
1800 ± 480 µM,23.4±3.5,,"LSNMMSDGEFLRTSCGSPNRRR [AMPKtide, human AMPKα1 residues 163-181 with 3 additional Arg residues added to the C-terminal]"
,,not activated,CN(C)C(=N)N=C(N)N [metformin]
